Test results as given in patent US20160109449A1 (JULIUS MAXIMILIANS UNIVERSITAET WUERZBURG, published 2016).

Tests used:
Test in all cases: peptide array on glass slide, fluorescent secondary antibody;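 note: binding of a hybridoma-secreted monoclonal antibody to immobilized oligopeptide spots, compared with control antibodies, detected through a fluorescence-labeled secondary antibody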
[1] = molecular target: T1, IsaA oligopeptide SEQ ID NO: 56 (Staphylococcus aureus)
T1 construct: Synthetic 15-mer of IsaA, spotted on a glass slide
T1 peptide: NAYNPSGASGLFQTM
Procedure: (§1) Each oligopeptide was immobilized on a small spot on a glass side. Binding of the monoclonal antibodies secreted by the hybridoma cell line DSM ACC2987 and of control antibodies to these spots was examined upon incubation with these antibodies by binding of fluorescence labeled secondary antibodies and detecting fluorescence intensities.

[2] = molecular target: T2, IsaA oligopeptide SEQ ID NO: 11 (Staphylococcus aureus)
T2 construct: Synthetic 15-mer of IsaA, spotted on a glass slide
T2 peptide: SLAVALGVTGYAAGT
Procedure: as §1

[3] = molecular target: T3, IsaA oligopeptide SEQ ID NO: 15 (Staphylococcus aureus)
T3 construct: Synthetic 15-mer of IsaA, spotted on a glass slide
T3 peptide: HQAHAAEVNVDQAHL
Procedure: as §1

[4] = molecular target: T4, IsaA oligopeptide SEQ ID NO: 57 (Staphylococcus aureus)
T4 construct: Synthetic 15-mer of IsaA, spotted on a glass slide
T4 peptide: PSGASGLFQTMPGWG
Procedure: as §1

[5] = molecular target: T5, IsaA oligopeptide SEQ ID NO: 51 (Staphylococcus aureus)
T5 construct: Synthetic 15-mer of IsaA, spotted on a glass slide
T5 peptide: TGVSASTWAAIIARE
Procedure: as §1

[6] = molecular target: T6, IsaA oligopeptide SEQ ID NO: 64 (Staphylococcus aureus)
T6 construct: Synthetic 15-mer of IsaA, spotted on a glass slide
T6 peptide: AVKAYKAQGLGAWGF
Procedure: as §1

[7] = molecular target: T7, IsaA oligopeptide SEQ ID NO: 38 (Staphylococcus aureus)
T7 construct: Synthetic 15-mer of IsaA, spotted on a glass slide
T7 peptide: YNAQSSNSNVEAVSA
Procedure: as §1

[8] = molecular target: T8, IsaA oligopeptide SEQ ID NO: 37 (Staphylococcus aureus)
T8 construct: Synthetic 15-mer of IsaA, spotted on a glass slide
T8 peptide: QSVSYNAQSSNSNVE
Procedure: as §1

[9] = molecular target: T9, IsaA oligopeptide SEQ ID NO: 34 (Staphylococcus aureus)
T9 construct: Synthetic 15-mer of IsaA, spotted on a glass slide
T9 peptide: DYTTSYNQGSDVQSV
Procedure: as §1

[10] = molecular target: T10, IsaA oligopeptide SEQ ID NO: 10 (Staphylococcus aureus)
T10 construct: Synthetic 15-mer of IsaA, spotted on a glass slide
T10 peptide: IMASSLAVALGVTGY
Procedure: as §1

[11] = molecular target: T11, IsaA oligopeptide SEQ ID NO: 24 (Staphylococcus aureus)
T11 construct: Synthetic 15-mer of IsaA, spotted on a glass slide
T11 peptide: DIHFVKDGFQYNFTS
Procedure: as §1

[12] = molecular target: T12, IsaA oligopeptide SEQ ID NO: 55 (Staphylococcus aureus)
T12 construct: Synthetic 15-mer of IsaA, spotted on a glass slide
T12 peptide: NGQVNAYNPSGASGL
Procedure: as §1

[13] = molecular target: T13, IsaA oligopeptide SEQ ID NO: 45 (Staphylococcus aureus)
T13 construct: Synthetic 15-mer of IsaA, spotted on a glass slide
T13 peptide: SVRLSNGNTAGATGS
Procedure: as §1

[14] = molecular target: T14, IsaA oligopeptide SEQ ID NO: 48 (Staphylococcus aureus)
T14 construct: Synthetic 15-mer of IsaA, spotted on a glass slide
T14 peptide: TGSSAAQIMAQRTGV
Procedure: as §1

[15] = molecular target: T15, IsaA oligopeptide SEQ ID NO: 53 (Staphylococcus aureus)
T15 construct: Synthetic 15-mer of IsaA, spotted on a glass slide
T15 peptide: AAIIARESNGQVNAY
Procedure: as §1

[16] = molecular target: T16, IsaA oligopeptide SEQ ID NO: 19 (Staphylococcus aureus)
T16 construct: Synthetic 15-mer of IsaA, spotted on a glass slide
T16 peptide: DLAHNHQDQLNAAPI
Procedure: as §1

[17] = molecular target: T17, IsaA oligopeptide SEQ ID NO: 23 (Staphylococcus aureus)
T17 construct: Synthetic 15-mer of IsaA, spotted on a glass slide
T17 peptide: DGAYDIHFVKDGFQY
Procedure: as §1

[18] = molecular target: T18, IsaA oligopeptide SEQ ID NO: 47 (Staphylococcus aureus)
T18 construct: Synthetic 15-mer of IsaA, spotted on a glass slide
T18 peptide: TAGATGSSAAQIMAQ
Procedure: as §1

[19] = molecular target: T19, IsaA oligopeptide SEQ ID NO: 18 (Staphylococcus aureus)
T19 construct: Synthetic 15-mer of IsaA, spotted on a glass slide
T19 peptide: AHLVDLAHNHQDQLN
Procedure: as §1

[20] = molecular target: T20, IsaA oligopeptide SEQ ID NO: 39 (Staphylococcus aureus)
T20 construct: Synthetic 15-mer of IsaA, spotted on a glass slide
T20 peptide: SSNSNVEAVSAPTYH
Procedure: as §1

[21] = molecular target: T21, IsaA oligopeptide SEQ ID NO: 61 (Staphylococcus aureus)
T21 construct: Synthetic 15-mer of IsaA, spotted on a glass slide
T21 peptide: TNTVDQQINAAVKAY
Procedure: as §1

[22] = molecular target: T22, IsaA oligopeptide SEQ ID NO: 63 (Staphylococcus aureus)
T22 construct: Synthetic 15-mer of IsaA, spotted on a glass slide
T22 peptide: NAAVKAYKAQGLGAW
Procedure: as §1

[23] = molecular target: T23, IsaA oligopeptide SEQ ID NO: 49 (Staphylococcus aureus)
T23 construct: Synthetic 15-mer of IsaA, spotted on a glass slide
T23 peptide: AAQIMAQRTGVSAST
Procedure: as §1

[24] = molecular target: T24, IsaA oligopeptide SEQ ID NO: 20 (Staphylococcus aureus)
T24 construct: Synthetic 15-mer of IsaA, spotted on a glass slide
T24 peptide: NHQDQLNAAPIKDGA
Procedure: as §1

[25] = molecular target: T25, IsaA oligopeptide SEQ ID NO: 21 (Staphylococcus aureus)
T25 construct: Synthetic 15-mer of IsaA, spotted on a glass slide
T25 peptide: QLNAAPIKDGAYDIH
Procedure: as §1

[26] = molecular target: T26, IsaA oligopeptide SEQ ID NO: 9 (Staphylococcus aureus)
T26 construct: Synthetic 15-mer of IsaA, spotted on a glass slide
T26 peptide: MKKTIMASSLAVALG
Procedure: as §1

[27] = molecular target: T27, IsaA oligopeptide SEQ ID NO: 25 (Staphylococcus aureus)
T27 construct: Synthetic 15-mer of IsaA, spotted on a glass slide
T27 peptide: VKDGFQYNFTSNGTT
Procedure: as §1

[28] = molecular target: T28, IsaA oligopeptide SEQ ID NO: 50 (Staphylococcus aureus)
T28 construct: Synthetic 15-mer of IsaA, spotted on a glass slide
T28 peptide: MAQRTGVSASTWAAI
Procedure: as §1

[29] = molecular target: T29, IsaA oligopeptide SEQ ID NO: 12 (Staphylococcus aureus)
T29 construct: Synthetic 15-mer of IsaA, spotted on a glass slide
T29 peptide: ALGVTGYAAGTGHQA
Procedure: as §1

[30] = molecular target: T30, IsaA oligopeptide SEQ ID NO: 54 (Staphylococcus aureus)
T30 construct: Synthetic 15-mer of IsaA, spotted on a glass slide
T30 peptide: ARESNGQVNAYNPSG
Procedure: as §1

[31] = molecular target: T31, IsaA oligopeptide SEQ ID NO: 32 (Staphylococcus aureus)
T31 construct: Synthetic 15-mer of IsaA, spotted on a glass slide
T31 peptide: GFSNVAGADYTTSYN
Procedure: as §1

B1: monoclonal antibody MAB-UK-66 secreted by hybridoma cell line DSM ACC2987 (antibody, V domains shown)
VH: DVKLVESGGGLVKLGGSLKLSCSASGFTFSNYYMSWVRQTPEKRLELVADINGNGGSTYYPDTVKGRFTISRDNAKNTLYLQMSSLKSEDTALYYCVRRGGYYALDYWGQGTTVTVSS
VL: DVVMTQTPLSLPVSLGDQASISCRSSQSLVHINGNTYLHWYLQKPGQSPKLLIYRVSNRFSGVPDRFSGSGSGTDFTLKISRVEAEDLGVYFCSQSTHVPWTFGGGTKLELKR
notes: Monoclonal mouse antibody from a hybridoma; Detected with anti-mouse IgG; also called antibodies secreted by cell line DSM ACC2987; anti-IsaA MAB
- Binding (fluorescence intensity) [1]: 959
- Binding (fluorescence intensity) [2]: 101
- Binding (fluorescence intensity) [3]: 11700
- Binding (fluorescence intensity) [4]: 16800
- Binding (fluorescence intensity) [5]: 139
- Binding (fluorescence intensity) [6]: 379
- Binding (fluorescence intensity) [7]: 975
- Binding (fluorescence intensity) [8]: 139
- Binding (fluorescence intensity) [9]: 29500
- Binding (fluorescence intensity) [10]: 228
- Binding (fluorescence intensity) [11]: 9360
- Binding (fluorescence intensity) [12]: 1030
- Binding (fluorescence intensity) [13]: 235
- Binding (fluorescence intensity) [14]: 1170
- Binding (fluorescence intensity) [15]: 577
- Binding (fluorescence intensity) [16]: 31900
- Binding (fluorescence intensity) [17]: 63900
- Binding (fluorescence intensity) [18]: 252
- Binding (fluorescence intensity) [19]: 25300
- Binding (fluorescence intensity) [20]: 491
- Binding (fluorescence intensity) [21]: 479
- Binding (fluorescence intensity) [22]: 645
- Binding (fluorescence intensity) [23]: 399
- Binding (fluorescence intensity) [24]: 1050
- Binding (fluorescence intensity) [25]: 33300
- Binding (fluorescence intensity) [26]: 273
- Binding (fluorescence intensity) [27]: 49300
- Binding (fluorescence intensity) [28]: 192
- Binding (fluorescence intensity) [29]: 680
- Binding (fluorescence intensity) [30]: 570
- Binding (fluorescence intensity) [31]: 59500
